Square brackets hold non-standard residues; d marks the D form. Ends that are not written are not given here.

Common to all, as to assay: ITC
Experiment [1] deals with T1, KDM5A PHD3 (third PHD zinc finger of KDM5A) (UniProt P29375 1609-1659).
T1 sequence: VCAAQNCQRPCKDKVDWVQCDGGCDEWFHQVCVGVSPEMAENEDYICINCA

The target in experiment [2] is T2, KDM4A tandem tudor domain (human).
T2 sequence (O75164 whole entry, looked up): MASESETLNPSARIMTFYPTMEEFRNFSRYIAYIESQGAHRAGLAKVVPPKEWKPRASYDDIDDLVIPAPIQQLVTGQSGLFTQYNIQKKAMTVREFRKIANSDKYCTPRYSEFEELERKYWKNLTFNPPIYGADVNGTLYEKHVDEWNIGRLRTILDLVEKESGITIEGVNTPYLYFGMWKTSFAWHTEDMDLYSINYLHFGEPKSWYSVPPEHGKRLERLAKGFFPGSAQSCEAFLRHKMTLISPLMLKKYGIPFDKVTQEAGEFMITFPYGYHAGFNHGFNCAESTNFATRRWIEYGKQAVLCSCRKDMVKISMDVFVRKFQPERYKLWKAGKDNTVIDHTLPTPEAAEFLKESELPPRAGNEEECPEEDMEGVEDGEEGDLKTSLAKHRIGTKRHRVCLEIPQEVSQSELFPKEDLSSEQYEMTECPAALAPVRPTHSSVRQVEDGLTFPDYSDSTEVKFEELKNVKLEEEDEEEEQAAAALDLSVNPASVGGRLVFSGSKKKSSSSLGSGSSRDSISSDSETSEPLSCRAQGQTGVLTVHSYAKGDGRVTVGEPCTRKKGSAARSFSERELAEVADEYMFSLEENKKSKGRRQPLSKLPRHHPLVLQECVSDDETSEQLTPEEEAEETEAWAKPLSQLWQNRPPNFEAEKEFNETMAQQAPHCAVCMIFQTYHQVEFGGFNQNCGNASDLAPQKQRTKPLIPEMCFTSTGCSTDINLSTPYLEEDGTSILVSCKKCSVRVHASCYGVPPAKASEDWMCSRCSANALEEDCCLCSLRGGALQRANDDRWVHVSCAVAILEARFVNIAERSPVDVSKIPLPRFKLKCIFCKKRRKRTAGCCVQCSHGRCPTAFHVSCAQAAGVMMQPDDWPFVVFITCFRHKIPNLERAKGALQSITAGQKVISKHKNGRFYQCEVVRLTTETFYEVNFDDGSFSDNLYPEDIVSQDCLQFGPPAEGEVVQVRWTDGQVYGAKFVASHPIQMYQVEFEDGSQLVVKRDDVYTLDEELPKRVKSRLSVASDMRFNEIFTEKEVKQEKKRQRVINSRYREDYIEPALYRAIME

Experiment [3] concerns the target SGF29 tandem tudor domain.
The target in a further experiment is T3, TAF3 PHD zinc finger.
T3 sequence (Q5VWG9 whole entry, species assumed, looked up): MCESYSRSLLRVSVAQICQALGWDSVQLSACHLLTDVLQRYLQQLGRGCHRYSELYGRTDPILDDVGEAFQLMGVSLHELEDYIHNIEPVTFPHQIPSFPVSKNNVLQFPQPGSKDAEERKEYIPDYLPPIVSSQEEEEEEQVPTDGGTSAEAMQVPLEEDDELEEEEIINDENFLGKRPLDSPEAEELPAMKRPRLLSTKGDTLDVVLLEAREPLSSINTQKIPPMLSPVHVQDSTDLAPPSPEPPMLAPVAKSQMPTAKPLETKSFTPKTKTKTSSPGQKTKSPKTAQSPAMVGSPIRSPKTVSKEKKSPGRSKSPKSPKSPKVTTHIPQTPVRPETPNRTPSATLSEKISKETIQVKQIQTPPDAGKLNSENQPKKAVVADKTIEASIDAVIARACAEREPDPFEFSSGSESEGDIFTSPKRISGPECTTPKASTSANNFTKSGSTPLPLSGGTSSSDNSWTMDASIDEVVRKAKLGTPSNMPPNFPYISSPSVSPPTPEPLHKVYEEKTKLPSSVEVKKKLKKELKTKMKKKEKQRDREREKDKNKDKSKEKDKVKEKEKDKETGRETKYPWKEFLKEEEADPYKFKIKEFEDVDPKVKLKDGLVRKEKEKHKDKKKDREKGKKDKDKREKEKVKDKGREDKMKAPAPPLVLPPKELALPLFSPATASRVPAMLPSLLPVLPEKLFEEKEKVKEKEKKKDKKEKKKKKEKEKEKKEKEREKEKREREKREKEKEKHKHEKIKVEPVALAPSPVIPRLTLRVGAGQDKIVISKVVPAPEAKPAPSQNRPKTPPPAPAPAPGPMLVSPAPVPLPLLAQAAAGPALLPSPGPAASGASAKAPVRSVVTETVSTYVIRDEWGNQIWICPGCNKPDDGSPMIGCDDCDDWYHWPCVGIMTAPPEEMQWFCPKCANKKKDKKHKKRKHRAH

SGF29 tandem tudor domain, sequence (Q96ES7 whole entry, the tested form may be a part): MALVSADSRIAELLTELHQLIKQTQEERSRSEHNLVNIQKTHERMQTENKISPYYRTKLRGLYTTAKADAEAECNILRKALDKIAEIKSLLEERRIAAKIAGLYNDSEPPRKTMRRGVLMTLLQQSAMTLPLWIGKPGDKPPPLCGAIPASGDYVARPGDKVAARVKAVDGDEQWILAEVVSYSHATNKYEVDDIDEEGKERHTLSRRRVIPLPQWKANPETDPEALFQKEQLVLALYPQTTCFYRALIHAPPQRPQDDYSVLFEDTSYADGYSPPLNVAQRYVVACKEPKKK

What is called Kd is the concentration at which binding is half-saturated. Read a high Kd as a looser complex. In experiment [1], ART[dK](Me3)QTARKS [10-mer histone peptide D-H3K4me3] came in with a Kd of 1200 nM and a dH of -7.8 kcal/mol.

In the case of ARTK(Me3)QTARKS [10-mer histone peptide L-H3K4me3], the dH in experiment [2] was -13.1 kcal/mol; in experiment [3] it was -7.7 kcal/mol; with TAF3 PHD zinc finger, -10.1 kcal/mol; in experiment [1] it was -11.1 kcal/mol. This molecule also yielded a Kd in experiment [1] of 110 nM.

The record behind these values is article PMC6345366 (Chemical communications (Cambridge, England), 2017).
